Values quoted from earlier work in PMC13042399.

Biological target: IGF2 (Homo sapiens) (UniProt P01344)
Sequence (P01344 25-91): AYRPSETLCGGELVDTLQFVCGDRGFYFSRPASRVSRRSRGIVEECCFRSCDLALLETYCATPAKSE

Kd: 40 nM
Substance: IGF2R (from UniProt P11717)
